This is an account of results in article PMC2515335 (2008).

By Kd is commonly meant the free concentration of one partner at which half of the binding sites on the other are occupied at equilibrium, for simple one-to-one binding.

The assay has as its target T1, Importin-β3 (Homo sapiens, UniProt O00410).
T1 chain: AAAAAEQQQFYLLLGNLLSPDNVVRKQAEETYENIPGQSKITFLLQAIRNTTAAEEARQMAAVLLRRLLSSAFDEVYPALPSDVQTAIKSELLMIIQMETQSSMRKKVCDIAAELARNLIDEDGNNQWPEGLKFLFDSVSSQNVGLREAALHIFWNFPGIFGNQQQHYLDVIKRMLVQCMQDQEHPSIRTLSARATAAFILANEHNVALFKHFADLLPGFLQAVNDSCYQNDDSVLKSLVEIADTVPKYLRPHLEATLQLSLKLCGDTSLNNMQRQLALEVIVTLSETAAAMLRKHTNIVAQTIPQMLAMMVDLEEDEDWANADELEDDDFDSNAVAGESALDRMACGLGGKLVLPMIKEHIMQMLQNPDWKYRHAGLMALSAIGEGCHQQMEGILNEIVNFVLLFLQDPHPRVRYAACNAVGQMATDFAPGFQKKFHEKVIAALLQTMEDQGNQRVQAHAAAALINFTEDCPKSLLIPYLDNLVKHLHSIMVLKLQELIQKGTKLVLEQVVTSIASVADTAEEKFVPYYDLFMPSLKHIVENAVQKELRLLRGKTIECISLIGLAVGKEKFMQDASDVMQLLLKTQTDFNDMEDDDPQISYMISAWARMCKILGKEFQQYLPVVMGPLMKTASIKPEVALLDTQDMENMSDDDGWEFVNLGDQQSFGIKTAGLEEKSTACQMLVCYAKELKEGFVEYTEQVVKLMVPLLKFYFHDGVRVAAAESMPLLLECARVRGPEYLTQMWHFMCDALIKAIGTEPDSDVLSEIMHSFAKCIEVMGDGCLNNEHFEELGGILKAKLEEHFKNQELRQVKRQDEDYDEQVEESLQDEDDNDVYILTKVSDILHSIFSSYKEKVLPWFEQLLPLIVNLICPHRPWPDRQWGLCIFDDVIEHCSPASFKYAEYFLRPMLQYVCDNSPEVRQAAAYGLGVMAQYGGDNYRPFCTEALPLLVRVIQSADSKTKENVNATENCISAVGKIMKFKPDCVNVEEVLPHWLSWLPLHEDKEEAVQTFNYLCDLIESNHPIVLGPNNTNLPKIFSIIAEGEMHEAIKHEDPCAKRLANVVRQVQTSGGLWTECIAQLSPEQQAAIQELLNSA
In words: native PAGE gel-shift mobility assay/fluorimetry.

B1: Vpr 1-96 (protein)
chain: MEQAPEDQGPQREPYNEWTLELLEELKSEAVRHFPRIWLHNLGQHIYETYGDTWAGVEAIIRILQQLLFIHFRIGCRHSRIGVTRQRRARNGASRS
Turning to B1, the Kd came out at 660 nM.
